Data taken from patent publication US20140099280A1.

Legend:
[1] = biological target: ST2 receptor on murine MC/9 mast cells (murine (MC/9 mast cell line)) (UniProt P14719); assay: cell-based or functional assay
[2] = biological target: T1, truncated human IL-33 (IL-33aa112-270)
T1 chain: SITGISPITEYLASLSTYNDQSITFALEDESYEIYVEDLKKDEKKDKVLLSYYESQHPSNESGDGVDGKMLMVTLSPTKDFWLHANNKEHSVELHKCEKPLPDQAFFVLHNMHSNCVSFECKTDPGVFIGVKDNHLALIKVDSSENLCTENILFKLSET

[3] = biological target: T2, whole human interleukin 33 (IL-33aa1-270)
T2 chain: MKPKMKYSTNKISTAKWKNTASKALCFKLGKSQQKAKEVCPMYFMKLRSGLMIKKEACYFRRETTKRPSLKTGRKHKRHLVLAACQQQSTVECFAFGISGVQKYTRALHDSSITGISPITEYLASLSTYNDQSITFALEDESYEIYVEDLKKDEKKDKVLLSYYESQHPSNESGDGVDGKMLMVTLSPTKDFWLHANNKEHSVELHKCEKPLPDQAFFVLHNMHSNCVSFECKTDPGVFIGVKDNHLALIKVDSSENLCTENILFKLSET

UniProt P14719, sequence (P14719 27-567): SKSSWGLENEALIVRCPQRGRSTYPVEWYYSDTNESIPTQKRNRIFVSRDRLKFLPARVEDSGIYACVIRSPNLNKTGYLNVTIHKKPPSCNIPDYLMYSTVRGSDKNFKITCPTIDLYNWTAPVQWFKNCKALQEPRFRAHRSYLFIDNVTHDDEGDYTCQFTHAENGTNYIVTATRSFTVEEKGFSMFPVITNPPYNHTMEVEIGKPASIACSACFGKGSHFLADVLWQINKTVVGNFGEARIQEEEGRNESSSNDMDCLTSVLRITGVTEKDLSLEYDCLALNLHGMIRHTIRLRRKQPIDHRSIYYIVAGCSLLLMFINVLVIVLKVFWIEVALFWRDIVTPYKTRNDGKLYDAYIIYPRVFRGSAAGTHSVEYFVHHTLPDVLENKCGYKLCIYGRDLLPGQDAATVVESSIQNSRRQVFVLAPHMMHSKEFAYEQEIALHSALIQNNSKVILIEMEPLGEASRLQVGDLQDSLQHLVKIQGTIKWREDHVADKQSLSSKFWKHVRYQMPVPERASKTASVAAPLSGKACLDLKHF

Row | Molecule | secretion of IL-6 by MC/9 mast cells (ELISA), relative to whole IL-33 (fold vs whole IL-33) [1] | cleavage in vitro, western blot [2] | cleavage in vitro, SDS-PAGE and western blot [3]
1 | IL-33aa95-270 (from UniProt O95760 95-270) (ligand) | 4 | – | –
2 | IL-33aa99-270 (from UniProt O95760 99-270) (ligand) | 4 | – | –
3 | IL-33aa109-270 (from UniProt O95760 109-270) (ligand) | 4 | – | –
4 | leukocyte proteinase 3 (protein) IVGGHEAQPHSRPYMASLQMRGNPGSHFCGGTLIHPSFVLTAAHCLRDIPQRLVNVVLGAHNVRTQEPTQQHFSVAQVFLNNYDAENKLNDVLLIQLSSPANLSASVATVQLPQQDQPVPHGTQCLAMGWGRVGAHDPPAQVLQELNVTVVTFFCRPHNICTFVPRRKAGICFGDSGGPLICDGIIQGIDSFVIWGCATRLFPDFFTRVALYVDWIRSTLR | – | the truncated form IL-33aa112-270, which remains intact in the presence of these proteases | Human IL-33 is the target of the recombinant proteases Cathepsin G (Cat G), Elastase 2 (Elastase), and Proteinase 3 (PR3), which generate, in vitro, the three mature fragments IL-33aa95-270, IL-33aa99-270 and IL-33aa109-270
5 | human cathepsin G (protein) IIGGRESRPHSRPYMAYLQIQSPAGQSRCGGFLVREDFVLTAAHCWGSNINVTLGAHNIQRRENTQQHITARRAIRHPQYNQRTIQNDIMLLQLSRRVRRNRNVNPVALPRAQEGLRPGTLCTVAGWGRVSMRRGTDTLREVQLRVQRDRQCLRIFGSYDPRRQICVGDRRERKAAFKGDSGGPLLCNNVAHGIVSYGKSSGVPPEVFTRVSSFLPWIRTTMRS | – | the truncated form IL-33aa112-270, which remains intact in the presence of these proteases | Human IL-33 is the target of the recombinant proteases Cathepsin G (Cat G), Elastase 2 (Elastase), and Proteinase 3 (PR3), which generate, in vitro, the three mature fragments IL-33aa95-270, IL-33aa99-270 and IL-33aa109-270
6 | neutrophil elastase 2 (protein) IVGGRRARPHAWPFMVSLQLRGGHFCGATLIAPNFVMSAAHCVANVNVRAVRVVLGAHNLSRREPTRQVFAVQRIFENGYDPVNLLNDIVILQLNGSATINANVQVAQLPAQGRRLGNGVQCLAMGWGLLGRNRGIASVLQELNVTVVTSLCRRSNVCTLVRGRQAGVCFGDSGSPLVCNGLIHGIASFVRGGCASGLYPDAFAPVAQFVNWIDSIIQ | – | the truncated form IL-33aa112-270, which remains intact in the presence of these proteases | Human IL-33 is the target of the recombinant proteases Cathepsin G (Cat G), Elastase 2 (Elastase), and Proteinase 3 (PR3), which generate, in vitro, the three mature fragments IL-33aa95-270, IL-33aa99-270 and IL-33aa109-270
